Data taken from the RNAGym collection of RNA variant scans (doi:10.7554/elife.90254).

B1: LINE1-full (parent)
chain: UACGUAGGUGGUUUUCCCCUGAUAGUGCUAAGGGGGCCUGGAAGUUUGGACUGGGCAGAGCUCAACACAGCGUGGCAAAGUGGCUGUGGCUAGACUGCCUCUCUGGAUUCCUCGUCACUCAGCAGGGCAUCUCUGAGAGAAAUGCC

Variants of: B1
Assay: self-cleavage, relative activity (ratio to wild type); higher = more cleavage; in vitro, sequencing; the parent is a self-cleaving ribozyme

Variant | self-cleavage
C51A U62A | 0.02
U1C A141G | 0.97
U20A G35C | 1.12
U5A C90G | 0.09
U5A A67U | 0.14
A64G U134C | 0.28
G7A A129U | 1.21
U12G U119C | 1.34
G58C A124U | 0.03
G72A A121U | 1.52
U26C U29A | 1.35
A24U A57C | 0
U47C A94C | 0.12
C18U A142G | 1.27
U9A A57G | 0.98
U73C C116U | 1.39
U9A A77U | 0.85
U9C A57G | 0.96
A42G U104G | 0.8
A43G A59U | 0.82
U15A G135A | 0.87

Variant | self-cleavage
A6U G36A | 0.88
U39C U100C | 2.36
U9C A141G | 1.36
A57G A124U | 0.76
G32A A121U | 1.45
A67U A77G | 0.17
A24G A138G | 1.07
A69G C95A | 0
A2G U5A | 0.42
U73G A107U | 1.59
A67U A117U | 0.1
U1C C90A | 0
A22G G34U | 1.66
U9C C16A | 0.59
C61A A78G | 0.04
U23A U96C | 0.19
A22G U73G | 1.49
A136U A140U | 1.65
C3U A140G | 0.97
A64U A77C | 0.39
A107G A136U | 1.82

Variant | self-cleavage
U5C G40A | 0.42
A43G C128U | 0.79
U13A U47G | 0.38
U9A G114C | 0.61
U13C U119C | 1.54
U13A U115G | 1.29
U119C U134A | 1.92
G40A A142G | 0.79
U9C U12A | 1.51
U73C G114A | 1.54
G11A C28G | 1.12
U39A U85G | 0.28
U52A A129U | 1.73
C3U A64G | 0.21
U39C U81A | 1.44
C3U U23A | 0.71
A77G C99U | 1.01
A79G U143A | 1.52
G89U A142U | 0.04
C61U U130C | 0.05
U87C C113U | 0

Variant | self-cleavage
C19U C116U | 0.9
G135A | 1.27
U45C U108A | 1.15
U115A A136G | 1.68
U112A U143C | 0.83
U12C G25A | 1.18
A64G U81A | 0.34
G74A U109C | 0.7
C18A G34A | 1.01
G33U U87C | 0.09
A43G U47C | 1.31
C133A A142G | 1.4
U81C C133A | 0.9
A78G U85G | 0.18
A129G A138G | 1.44
U47A U100C | 1.81
G21A U73C | 1.41
A64C U100C | 0.62
U119C G125U | 2.39
U12C G32A | 1.54
